In patent US20240026004A1 (SHANGHAI HUAOTA BIOPHARMACEUTICAL, published 2024):

Experiments:
[1] = target: T1, Human LAP (human, UniProt P01137 30-278); test: SPR (BIAcore), HB0028 captured on Protein A chip, TGF-β protein as analyte
T1 construct: domain: LAP; also called precursor of TGF-β1 (Human LAP)
Method: (§1) Flow rate: 30 μl/min, binding: 120 s, dissociation: 600 s, analyzing the kinetic constants by Fit local using a 1:1 binding mode.

[2] = target: T2, Mouse precursor TGF-β1 (mouse, UniProt P04202 30-390, limits assumed); test: as above
T2 construct: Latent/precursor form as printed; also called Mouse Latent TGF-β1
Method: as §1

[3] = target: T3, Rat PD-L1 (rat, UniProt D4AE25 19-239); test: SPR (BIAcore), HB0028 captured on anti-human IgG (Fc) chip, PD-L1 as analyte
T3 construct: also called PD-L1 in rats
T3 sequence (D4AE25 entry or part of it limits assumed): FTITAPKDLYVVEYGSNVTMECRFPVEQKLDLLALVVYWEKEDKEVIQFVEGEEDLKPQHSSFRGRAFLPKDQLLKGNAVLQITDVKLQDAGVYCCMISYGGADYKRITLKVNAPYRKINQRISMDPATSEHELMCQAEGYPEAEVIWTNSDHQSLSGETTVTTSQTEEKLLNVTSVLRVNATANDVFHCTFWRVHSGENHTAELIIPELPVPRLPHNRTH
Method: as §1

[4] = target: T4, Rabbit PD-L1 (rabbit, UniProt G1SUI3 19-236); test: as above
T4 construct: also called PD-L1 in rabbits
T4 sequence: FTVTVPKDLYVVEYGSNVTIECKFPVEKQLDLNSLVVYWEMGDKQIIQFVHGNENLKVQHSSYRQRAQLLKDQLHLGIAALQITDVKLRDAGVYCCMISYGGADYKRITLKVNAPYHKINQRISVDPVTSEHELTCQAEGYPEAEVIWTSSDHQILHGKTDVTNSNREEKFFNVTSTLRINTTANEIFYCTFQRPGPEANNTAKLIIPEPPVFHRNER
Method: as §1

[5] = target: T5, Mouse PD-L1 (mouse, UniProt Q9EP73 19-238, limits assumed); test: as above
T5 construct: also called PD-L1 in mice
T5 sequence (Q9EP73 19-238 limits assumed): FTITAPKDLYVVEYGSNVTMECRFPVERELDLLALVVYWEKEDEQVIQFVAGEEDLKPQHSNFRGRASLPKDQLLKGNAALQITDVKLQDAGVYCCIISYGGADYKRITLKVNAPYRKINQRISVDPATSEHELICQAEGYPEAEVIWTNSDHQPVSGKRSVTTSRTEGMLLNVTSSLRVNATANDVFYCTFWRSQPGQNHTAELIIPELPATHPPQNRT
Method: as §1

[6] = target: T6, human TGF-β1 (human, UniProt P01137 279-390); test: ELISA, TGF-β1 coated at 0.5 µg/ml, HRP anti-human IgG detection, OD450
T6 construct: also called TGF-β1 (ACRO, TG1-H4212); free TGF-β protein
T6 sequence (P01137 279-390 limits assumed): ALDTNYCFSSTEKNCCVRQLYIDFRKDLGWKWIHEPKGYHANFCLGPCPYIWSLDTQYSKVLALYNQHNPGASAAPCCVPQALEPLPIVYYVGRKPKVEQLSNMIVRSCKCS
Method: (§2) After washing with PBST, into the plates was added HRP-labeled anti-human IgG secondary antibody (1:5000 dilution) at 100 μl/well, reacted at room temperature for 30 min, and then washed with PBST. After developing with TMB color development solution for 5 min, the reaction was terminated with sulfuric acid, and OD450 value was read by a microplate reader.

[7] = target: Mouse/Rat TGF-β1 (mouse/rat, UniProt P04202 279-390); test: SPR (BIAcore), HB0028 captured on Protein A chip, TGF-β protein as analyte, 1:1 fit
Mouse/Rat TGF-β1, sequence (P04202 279-390 limits assumed): as the sequence (P01137 279-390 limits assumed) above, with A75S counted along it
Method: as §1

[8] = target: T7, Human TGF-β2 (human, UniProt P61812 303-414); test: as above
T7 sequence (looked up): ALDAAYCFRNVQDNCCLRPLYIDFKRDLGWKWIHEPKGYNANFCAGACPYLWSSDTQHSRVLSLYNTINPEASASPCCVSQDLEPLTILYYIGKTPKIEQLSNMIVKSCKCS
Method: as §1

[9] = target: T8, Mouse/Rat TGF-β2 (mouse/rat, UniProt P27090 303-414); test: as above
T8 sequence (looked up): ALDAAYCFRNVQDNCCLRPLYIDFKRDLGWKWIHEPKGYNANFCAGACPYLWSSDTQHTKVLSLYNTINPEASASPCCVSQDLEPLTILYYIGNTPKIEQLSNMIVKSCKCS
Method: as §1

[10] = target: T6, human TGF-β1; test: as above
Method: as §1

[11] = target: Human PD-L1 (BIAcore analyte) (human, UniProt Q9NZQ7 19-238, limits assumed); test: SPR (BIAcore), HB0028 captured on anti-human IgG (Fc) chip, PD-L1 as analyte, 1:1 fit
Human PD-L1 (BIAcore analyte), sequence (Q9NZQ7 19-238 limits assumed): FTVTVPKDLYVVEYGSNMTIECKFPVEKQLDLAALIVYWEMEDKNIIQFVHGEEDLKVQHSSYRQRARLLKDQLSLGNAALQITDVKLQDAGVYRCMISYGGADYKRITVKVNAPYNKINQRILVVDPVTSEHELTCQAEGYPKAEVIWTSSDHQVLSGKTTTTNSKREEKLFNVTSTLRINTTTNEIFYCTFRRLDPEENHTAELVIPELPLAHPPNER
Method: as §1

[12] = target: T9, Monkey PD-L1 (monkey); test: as above
T9 construct: also called PD-L1 in monkeys
Method: as §1

[13] = target: T10, human PD-L1 on CHO-K1 cells (human, UniProt Q9NZQ7 19-290); test: flow cytometry on CHO-K1 cells overexpressing human PD-L1, PE anti-human IgG detection, median fluorescence intensity
T10 construct: whole, on cells; also called CHO-K1 cells overexpressing human PD-L1; CHO-K1-OS8-PD-L1-8D6 cells
T10 sequence (Q9NZQ7 19-290): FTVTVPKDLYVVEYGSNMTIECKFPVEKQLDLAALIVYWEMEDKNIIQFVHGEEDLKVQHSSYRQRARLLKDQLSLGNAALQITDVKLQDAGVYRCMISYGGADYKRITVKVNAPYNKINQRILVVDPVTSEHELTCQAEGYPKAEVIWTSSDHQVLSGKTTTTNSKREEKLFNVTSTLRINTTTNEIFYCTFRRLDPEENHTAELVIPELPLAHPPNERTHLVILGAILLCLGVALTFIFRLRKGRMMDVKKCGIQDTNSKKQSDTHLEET
Method: CHO-K1 cells overexpressing human PD-L1 were taken and resuspended to 1×10⁶/ml and added into a 96-well plate at 20 μl/well.

[14] = target: T10, human PD-L1 on CHO-K1 cells; test: dual-target flow cytometry: sample pre-mixed with 3 µg/ml human TGF-β1, then CHO-K1 cells overexpressing human PD-L1, detection with PE anti-human TGF-β1 antibody (signal needs PD-L1 and TGF-β1 bound at once)
Method: After then, CHO-K1 cells overexpressing human PD-L1 were taken and resuspended to 1×10⁶/ml, added into a 96-well plate at 20 μl/well, and incubated for min after being mixed uniformly. The plate was washed twice by centrifugation with 1% BSA-PBS. Into each well was added 20 μl of PE fluorescence labeled anti-human TGF-β1 secondary antibody (1:100), incubated at room temperature for 15 min, washed three times by centrifugation, and then tested for the emission intensity at 580 nm by a flow cytometer Canto II (BD).

[15] = target: T11, human TGF-β3 (human, UniProt P10600 301-412); test: ELISA, TGF-β3 coated at 0.5 µg/ml, HRP anti-human IgG detection, OD450
T11 construct: also called TGF-β3 (R&D, 8420-B3-025)
T11 sequence (looked up): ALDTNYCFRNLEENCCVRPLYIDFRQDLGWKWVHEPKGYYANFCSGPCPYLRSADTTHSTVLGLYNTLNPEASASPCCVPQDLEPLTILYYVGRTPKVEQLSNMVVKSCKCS
Method: as §2

T2 sequence (P04202 30-390 limits assumed): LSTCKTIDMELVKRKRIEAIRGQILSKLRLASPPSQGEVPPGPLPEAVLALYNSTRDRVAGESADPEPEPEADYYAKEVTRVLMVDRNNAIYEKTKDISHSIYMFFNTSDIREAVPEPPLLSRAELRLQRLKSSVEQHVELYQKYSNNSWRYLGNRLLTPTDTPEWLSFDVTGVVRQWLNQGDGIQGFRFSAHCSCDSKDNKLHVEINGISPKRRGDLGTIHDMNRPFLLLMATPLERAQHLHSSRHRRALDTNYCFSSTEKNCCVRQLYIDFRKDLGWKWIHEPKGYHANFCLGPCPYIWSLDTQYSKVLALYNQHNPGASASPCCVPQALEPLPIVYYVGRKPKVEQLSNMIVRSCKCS
T1 sequence (P01137 30-278 limits assumed): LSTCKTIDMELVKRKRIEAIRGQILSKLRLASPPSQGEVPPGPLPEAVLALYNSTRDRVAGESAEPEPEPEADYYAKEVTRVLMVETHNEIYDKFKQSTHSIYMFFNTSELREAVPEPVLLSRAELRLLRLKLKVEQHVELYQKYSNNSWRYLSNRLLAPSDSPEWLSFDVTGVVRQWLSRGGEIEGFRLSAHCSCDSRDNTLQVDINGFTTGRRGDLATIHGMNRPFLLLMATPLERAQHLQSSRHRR

Binder	binding result [1]	binding result [2]	binding result [3]	binding result [4]	binding result [5]	EC50 [6] [nM]	Kd [7] [nM]	Kd [8] [nM]	Kd [9] [nM]	Kd [10] [nM]	Kd [11] [nM]	Kd [12] [nM]	EC50 [13] [nM]	EC50 [14] [nM]	EC50 [15] [nM]
HB0028 (bispecific antibody, human IgG1, kappa, also called N-fusion PD-L1/TGF-β bispecific antibody; heavy chain 500054 + light chain 400085) heavy: not shown light: DVVMTQTPLSLSVTPGQPASISCKSSQSLANSYGNTYLSWYLHKPGQSPQLLIYGISNRFSGVPDRFSGSGSGTDFTLKISRVEAEDVGVYYCLQGTHQPPTFGQGTKLEIKRTVAAPSVFIFPPSDEQLKSGTASVVCLLNNFYPREAKVQWKVDNALQSGNSQESVTEQDSKDSTYSLSSTLTLSKADYEKHKVYACEVTHQGLSSPVTKSFNRGEC	no binding	no binding	no binding	no binding	no binding	0.347	0.00275	1.56	1.97	0.0114	2.45	5.87	3.77	4.22	
HB0029 (bispecific antibody, human IgG1, kappa, Heavy chain from N to C: VH of HB0023, wild-type human IgG1 constant region, GS linker, human TGF-βRII ECD 24-159; Same light chain as HB0028; also called C-fusion PD-L1/TGF-β bispecific antibody; heavy chain 500055 + light chain 400085) heavy: not shown light: DVVMTQTPLSLSVTPGQPASISCKSSQSLANSYGNTYLSWYLHKPGQSPQLLIYGISNRFSGVPDRFSGSGSGTDFTLKISRVEAEDVGVYYCLQGTHQPPTFGQGTKLEIKRTVAAPSVFIFPPSDEQLKSGTASVVCLLNNFYPREAKVQWKVDNALQSGNSQESVTEQDSKDSTYSLSSTLTLSKADYEKHKVYACEVTHQGLSSPVTKSFNRGEC						0.955							1.85	1.61	1.51
TGFβRII (Fc fusion) TIPPHVQKSVNNDMIVTDNNGAVKFPQLCKFCDVRFSTCDNQKSCMSNCSITSICEKPQEVCVAVWRKNDENITLETVCHDPKLPYHDFILEDAASPKCIMKEKKKPGETFFMCSCSSDECNDNIIFSEEYNTSNPD						0.652									
